Reference: paper PMC6364807 (Nature, 2019)

Molecular target: human GABAA receptor β3 subunit (human, UniProt P28472, N-linked glycans at Asn80 and Asn149)
Assay: cryo-EM structure

Chain of human GABAA receptor β3 subunit (P28472 26-473): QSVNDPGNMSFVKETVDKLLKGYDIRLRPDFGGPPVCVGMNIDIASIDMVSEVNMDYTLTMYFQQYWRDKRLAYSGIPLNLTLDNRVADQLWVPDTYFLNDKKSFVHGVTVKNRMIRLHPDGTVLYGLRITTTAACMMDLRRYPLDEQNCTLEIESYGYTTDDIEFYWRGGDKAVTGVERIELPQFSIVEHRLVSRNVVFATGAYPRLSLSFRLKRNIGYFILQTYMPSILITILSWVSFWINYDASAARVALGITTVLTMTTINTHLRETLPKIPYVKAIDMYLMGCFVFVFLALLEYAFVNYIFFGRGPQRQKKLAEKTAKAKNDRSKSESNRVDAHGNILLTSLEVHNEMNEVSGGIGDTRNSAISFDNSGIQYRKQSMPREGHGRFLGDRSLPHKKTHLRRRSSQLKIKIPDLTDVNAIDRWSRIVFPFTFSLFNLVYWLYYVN

B1: megabody MbNb38^cHopQ (VHH)
VHH: QVQLQESGGGLVQAGGSLRVSCAASGRTFTAYIMAWFRQAPGKEREFLAAMDQGRIQYYGDSVRGRFTISRDYAKNSVDLQLDGLRPEDTAVYYCAAGAGFWGLRTASSYHYWGQGTQVTVSS
- binding result: binds
